The numbers were not newly measured in PMC5530503, which cites them from elsewhere.

The Kd is the equilibrium constant for the complex coming apart.

This series concerns the target VEGFR2 (Homo sapiens) (UniProt P35968).
Chain of UniProt P35968 (P35968 20-1356): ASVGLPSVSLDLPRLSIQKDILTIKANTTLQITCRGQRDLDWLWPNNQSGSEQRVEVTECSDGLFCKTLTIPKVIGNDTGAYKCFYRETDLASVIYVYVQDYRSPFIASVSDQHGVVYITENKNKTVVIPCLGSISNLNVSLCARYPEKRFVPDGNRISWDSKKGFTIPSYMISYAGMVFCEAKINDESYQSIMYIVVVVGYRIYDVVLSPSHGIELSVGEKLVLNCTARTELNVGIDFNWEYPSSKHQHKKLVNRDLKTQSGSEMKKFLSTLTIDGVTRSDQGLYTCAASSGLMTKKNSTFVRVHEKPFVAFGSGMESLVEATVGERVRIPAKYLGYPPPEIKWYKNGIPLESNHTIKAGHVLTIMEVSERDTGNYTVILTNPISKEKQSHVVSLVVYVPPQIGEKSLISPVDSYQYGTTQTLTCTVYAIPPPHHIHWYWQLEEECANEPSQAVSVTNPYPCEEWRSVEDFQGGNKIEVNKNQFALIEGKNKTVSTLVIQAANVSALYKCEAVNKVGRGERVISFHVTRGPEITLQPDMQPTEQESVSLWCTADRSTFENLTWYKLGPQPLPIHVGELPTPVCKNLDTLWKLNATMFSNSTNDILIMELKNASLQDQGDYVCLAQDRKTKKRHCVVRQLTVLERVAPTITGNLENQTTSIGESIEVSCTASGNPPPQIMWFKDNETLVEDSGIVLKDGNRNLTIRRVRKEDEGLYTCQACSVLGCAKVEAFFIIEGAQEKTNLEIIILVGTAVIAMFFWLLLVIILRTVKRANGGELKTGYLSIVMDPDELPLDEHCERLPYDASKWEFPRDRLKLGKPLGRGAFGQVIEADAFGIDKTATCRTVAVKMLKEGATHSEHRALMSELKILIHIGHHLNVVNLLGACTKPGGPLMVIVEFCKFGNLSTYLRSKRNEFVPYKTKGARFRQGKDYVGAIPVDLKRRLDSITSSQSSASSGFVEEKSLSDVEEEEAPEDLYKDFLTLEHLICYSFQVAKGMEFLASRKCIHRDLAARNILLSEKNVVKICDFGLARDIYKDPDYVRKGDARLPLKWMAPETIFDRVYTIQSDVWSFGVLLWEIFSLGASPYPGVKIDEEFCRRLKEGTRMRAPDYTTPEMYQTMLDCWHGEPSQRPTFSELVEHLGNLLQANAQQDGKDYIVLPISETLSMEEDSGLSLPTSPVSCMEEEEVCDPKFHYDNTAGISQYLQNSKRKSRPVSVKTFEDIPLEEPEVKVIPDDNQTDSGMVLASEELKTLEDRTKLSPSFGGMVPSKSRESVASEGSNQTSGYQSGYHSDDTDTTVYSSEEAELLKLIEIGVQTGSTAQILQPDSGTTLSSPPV

For the substance VEGF (from UniProt P15692), the Kd was 0.037 nM.
